Measured values published in publication PMC2935283.

Tests used:
[1] = molecular target: Escherichia coli enolase (E. coli) (UniProt P0A6P9); assay: crystal structure; enolase and microdomain mixed in a 1:1.5 molar ratio on ice for 20 min; sitting drop, 0.1 M HEPES pH 7.0, 1.6 M ammonium sulfate, 293 K; 1.9 A
[2] = molecular target: Escherichia coli enolase (E. coli) (UniProt P0A6P9); assay: native MS; enolase mixed with the microdomain in a 1:1.5 molar ratio, room temperature, 20 min; nanoflow ESI, tandem nondissociating QTOF-MS/MS

Escherichia coli enolase (E. coli), sequence (P0A6P9 whole entry): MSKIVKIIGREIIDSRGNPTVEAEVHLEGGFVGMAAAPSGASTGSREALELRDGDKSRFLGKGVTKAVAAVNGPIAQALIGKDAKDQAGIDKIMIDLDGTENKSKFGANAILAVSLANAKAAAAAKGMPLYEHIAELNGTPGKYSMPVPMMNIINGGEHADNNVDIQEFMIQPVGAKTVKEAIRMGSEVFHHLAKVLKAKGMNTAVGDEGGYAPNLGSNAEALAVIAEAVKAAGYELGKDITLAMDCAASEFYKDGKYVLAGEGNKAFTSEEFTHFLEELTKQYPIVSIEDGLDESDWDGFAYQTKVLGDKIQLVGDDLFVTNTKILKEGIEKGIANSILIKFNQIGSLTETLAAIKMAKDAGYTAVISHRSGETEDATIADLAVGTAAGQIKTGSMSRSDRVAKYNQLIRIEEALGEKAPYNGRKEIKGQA

## RNase E recognition microdomain (residues 823-850) (peptide)
[1]
  stoichiometry N (RNase E microdomain per enolase dimer): 1
[2]
  stoichiometry N (RNase E microdomain per enolase dimer): 1
